From patent publication US10533231B2, “Artificial bioluminescent enzyme” (NATIONAL INSTITUTE OF ADVANCED INDUSTRIAL SCIENCE AND …, priority 2012, dated 2020)
Entries after “also recorded” stand apart in the source; their conditions may differ.

B1: ALuc31: artificial luciferase containing a His tag, SEQ ID NO: 33 (protein)
chain: MMGIKVLFALICFALVQANHHHHHHHHDIVGVEGKFGTTDLETDLFTIVEDMNVISRDTDVDANRADRGRRGELPGKKLPLEVLKELEANAQKAGCTRGCLICLSHIKCTAKMKKWLPGRCESWEGDKETGQGGIGEAIVDIPEIPGFKELAPMEQFIAQVDLCADCTTGCLKGLANVKCSALLKKWLPSRCAGFADKIQAQVDTIKGAGGS
modifications: His tag; Synthetic ALuc31
B2: ALuc24: artificial luciferase, SEQ ID NO: 27 (protein)
chain: MMGIKVLFALICFALVQANPTENKDDIDIVGVEGKFGTTDLETDLFTIVEDMNVISRDTDVDANRADRGRRGKLPGKKLPLEVLKELEANAQKAGCTRGCLICLSHIKCTAKMKKWLPGRCESWEGDKETGQGGIGEAIVDIPEIPGFKNMAPMEQFIAQVDLCADCTTGCLKGLANVKCSNLLKKWLPSRCKGFANKIQAEVDTIKGLGGS
modifications: Synthetic ALuc24

What was measured:
COS-7 cells [1] = assay: Luminescence of ALuc25 to ALuc32 in lysate and medium (Example 1-18); assay type: cell-based; conditions: 20 hours after plasmid introduction
Method: After the insertion of a gene encoding an enzyme sequence as mentioned above into a mammalian expression vector (pcDNA3.1 (+)), each plasmid was introduced into COS-7 cells. By the transformation of these cells, each luciferase was expressed, and some of the luciferase was secreted out of the cells and some of the luciferase retained in the cells. 20 hours after the plasmid introduction, media of the cells were sampled, and the remaining cells were lysed with a lysis buffer (lysate preparation). Immediately after 50 μL of assay solution (containing a substrate) was simultaneously added to each prepared medium (5 μL) or lysate (5 μL), the luminescence value was measured using a luminescence analyzer (LAS-4000; FujiFilm) (n=3) (FIG. 18).

COS-7 cells [2] = assay: Enzymatic activity confirmation of ALuc (section 3-1, 3-2); assay type: cell-based, African monkey; conditions: vs conventional copepod luciferases
Method: First, using a known lipid reagent for gene introduction, an expression vector encoding ALuc is introduced into African monkey-derived COS-7 cells; as a control, an expression vector having a known GLuc without any mutation into the cells is also introduced in the same manner. At a predetermined time (from 10 to 20 hours, for example, 16 hours) after the introduction of the vector, a cell lysate is prepared using a known lysis reagent.
Thereafter, the cell lysate is mixed with a known substrate solution containing coelenterazine, and its color intensity, temporal stability in luminescence, etc., are measured.
The luminescence intensity may be found by measuring the intensity at a specific wavelength using a known luminescence spectrophotometer after addition of a known substrate. By performing the measurement every minute, the temporal stability in luminescence can be evaluated. To measure a shift to a longer wavelength, scanning of the entire wavelength is necessary.

COS-7 cells [3] = assay: Luminescence stability of ALucs after substrate injection (Example 1-3); assay type: cell-based, African green monkey; conditions: Promega lysis and reaction solution
Method: The luminescence stability of the artificial luciferases (ALucs) of the present invention was examined in various respects (FIG. 3). COS-7 cells containing each luciferase gene were cultured for 9 hours, and treated with a cell lysis solution produced by Promega for 20 minutes. Temporal changes in luciferase luminescence intensity after the introduction of a substrate-containing reaction solution produced by Promega were observed every five minutes (FIG. 3A).
This experiment was expanded to artificial luciferases ALuc16 to ALuc25 (FIG. 3BC).

[4] = Prolonged activity stability of ALucs secreted in medium (Example 1-19); assay type: physicochemical; conditions: Day 0 to Day 25
Method: The prolonged activity stability of the artificial luciferases (ALucs) developed in the present invention was examined. First, a plasmid expressing each artificial luciferase (ALuc16, ALuc22, ALuc23, ALuc24, ALuc25, and ALuc30) (in the figure, each is referred to as A16, A22, A23, A24, A25, and A30) was introduced into COS-7 cells, and then culturing was continued for 24 hours. By the culturing, each artificial luciferase was secreted into the medium. The artificial luciferase secreted in the medium was collected, and a difference in enzymatic activity was measured under the same conditions in the following manner. On the first day (Day 0), 50 μL of assay solution (containing native coelenterazine, produced by Promega) was added to 5 μL of each medium, and the luminescence value (enzymatic activity) was measured using an LAS-4000 (produced by FujiFilm). In the same manner, the luminescence value on Day 8, Day 16, and Day 25 was compared with the luminescence value on Day 0 (FIG. 19 (A)).

[5] = Temporal change in luminescence after substrate injection, medium 25 days after expression (Example 1-19); assay type: biochemical; conditions: medium 25 days after expression
Method: 50 μL of an assay solution (containing native coelenterazine, produced by Promega) was added to 5 μL of each medium 25 days after the expression, and the luminescence value (enzymatic activity) was measured using an LAS-4000 (produced by FujiFilm).

Molecule | luminescence from cell medium (COS-7 cells [1]) | luminescence value from lysate (COS-7 cells [1]) | luminescence stability (general statement) (COS-7 cells [2]) | luminescence intensity (initial) (COS-7 cells [3]) | luminescence stability / sustainability after substrate injection (COS-7 cells [3]) | prolonged enzymatic activity stability [4] | temporal change of luminescence after substrate injection [5]
B1 | strong bioluminescence | extremely higher than those of conventional GLuc and MpLuc4 | remarkably stable luminescence signals | – | – | – | –
B2 | – | – | remarkably stable luminescence signals | slightly low in luminescence intensity; also recorded: relatively low luminescence intensity | excellent in luminescence stability; also recorded: extremely higher luminescence sustainability than other artificial luciferases | maintained stable enzymatic activity until Day 25 | abrupt increase in luminescence value after 6 minutes
